Data as given in PMC11686999.

Target: Pyruvate kinase M2 (PKM2) (human (endogenous in HCT116 and RKO)) (UniProt P14618)
Test: cross-linking

Pyruvate kinase M2 (PKM2), P14618 1-531 (natural protein; other documents disagree on this pair), sequence (P14618 whole entry): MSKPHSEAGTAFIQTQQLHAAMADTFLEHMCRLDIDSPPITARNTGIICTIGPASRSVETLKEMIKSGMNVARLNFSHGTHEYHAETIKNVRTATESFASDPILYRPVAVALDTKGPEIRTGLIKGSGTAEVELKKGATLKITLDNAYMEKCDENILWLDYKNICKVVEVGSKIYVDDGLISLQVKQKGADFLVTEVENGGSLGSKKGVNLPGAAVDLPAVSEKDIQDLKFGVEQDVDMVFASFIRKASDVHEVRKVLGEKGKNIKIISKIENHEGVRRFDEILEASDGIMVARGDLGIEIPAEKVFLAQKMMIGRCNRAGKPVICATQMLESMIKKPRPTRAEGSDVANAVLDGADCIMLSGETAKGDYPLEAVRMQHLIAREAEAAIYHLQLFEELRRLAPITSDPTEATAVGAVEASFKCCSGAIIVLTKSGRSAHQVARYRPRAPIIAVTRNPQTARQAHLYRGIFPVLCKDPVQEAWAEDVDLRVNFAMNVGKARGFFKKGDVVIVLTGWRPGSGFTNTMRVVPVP

stoichiometry N: 2
Substance: Pyruvate kinase M2 (PKM2), P14618 1-531 (natural protein; other documents disagree on this pair)
